Numbering of substitutions follows the chain as printed. Names may count otherwise.
B1: NpSxph: Nanorana parkeri (High Himalaya frog) saxiphilin, SEQ ID NO: 2 (protein, listed as Nanorana parkeri)
chain: MALTFHTALYFTIVGLSFAASDARHVQWCTISHLEQKKCNDLVGSCNVPDITLACVYRSSTENCMAAIKDGQADAMFLDSGDVYKASLDHYNLKPIIAEPYSLHRELTKCLKHRQESLGGDKMVKGRYIPQCDEKGNYHPVQCHASTGYCWCVNANGEKIEGTNTTPVQTPPTCPSQVLTKCLKERQEALGGKRIAIGRYIPQCDEQGNYRPMQCHGSTGYCWCVNAIGEKIEGTNTPPGNTQPTCQSHDWDTCHYAVAVVKNSSTFQFGQLKGKRSCHSGLSKTDGWNAPVNVFVEKKLLPWDGLAKGSIERAVSKFFSASCIPGATETNLCKQCIGEEEKKCKSSHDEPYYGDHGAFRCLQEDKGDVAFLKNTALPDEHSGVYELLCPDNTRKPLNKYKECNLGKVPADAVVTRKAGDKTKDINDFLLEAQKKKCKLFGSPHGKDLMFDDSTTHLAPLPSEIDAFFFLGVKWYNAMKALTEDVKLPSKNKVRWCTINKPEMMKCKDWAAVSGGAIACTEASCPEHCVKQILKGEADAVTLDVQYMYMALMCGLLPAVEEYPNKDDFHPCQIPGSTIKDFGTKRAVALVKKSNKDIKWNNLKGKKSCHTHVGDIPGWVIPAGLISNQNDNIDIESFFGESCAPGSDTNSKLCKLCIGDPENPKASTRCSLSDKEAYYGNEGAFRCLVEKGDVAFVPHTVVFANTDGKNPAEWAKDLKSEDFEILCLDGSRAPVTNYRGCNLSGLPPRAIVTREESVSDVVRILINQQSLYGRNGFEKDMFQMFSSAKGQNLLFNDETQCLIEFDRQPKDIMEDYFGVRYYTAVYSASRSAVPSELIPACTFKHC
B2: Y558A: RcSxph STX binding pocket mutant Y558A (protein)
chain: MAPTFQTALFFTIISLSFAAPNAKQVRWCAISDLEQKKCNDLVGSCNVPDITLVCVLRSSTEDCMTAIKDGQADAMFLDSGEVYEASKDPYNLKPIIAEPYSSNRDLQKCLKERQQALAKKMIGHYIPQCDEKGNYQPQQCHGSTGHCWCVNAMGEKISGTNTPPGQTRATCERHELPKCLKERQVALGGDEKVLGRFVPQCDEKGNYEPQQFHGSTGYSWCVNAIGEEIAGTKTPPGKIPATCQKHDLVTTCHYAVAMVKKSSAFQFNQLKGKRSCHSGVSKTDGWKALVTVLVEKKLLSWDGPAKESIQRAMSKFFSVSCIPGATQTNLCKQCKGEEGKNCKNSHDEPYYGNYGAFRCLKEDMGDVAFLRSTALSDEHSEVYELLCPDNTRKPLNKYKECNLGTVPAGTVVTRKISDKTEDINNFLMEAQKRQCKLFSSAHGKDLMFDDSTLQLALLSSEVDAFLYLGVKLFHAMKALTGDAHLPSKNKVRWCTINKLEKMKCDDWSAVSGGAIACTEASCPKGCVKQILKGEADAVKLEVQYMYEALMCGLLPAVEEYHNKDDFGPCKTPGSPATDFGTLRAVALVKKSNKDINWNNIKGKKSCHTGVGDIAGWVIPVSLIRRQNDNSDIDSFFGESCAPGSDTKSNLCKLCIGDPKNSAANTKCSLSDKEAYYGNQGAFRCLVEKGDVAFVPHTVVFENTDGKNPAVWAKNLKSEDFELLCLDGSRAPVSNYKSCKLSGIPPPAIVTREESISDVVRIVANQQSLYGRKGFEKDMFQLFSSNKGNNLLFNDNTQCLITFDRQPKDIMEDYFGKPYYTTVYGASRSAMSSELISACTIKHC
B3: E540D: RcSxph STX binding pocket mutant E540D (protein)
chain: B2 chain with E559D, A577Y
B4: D794E: RcSxph STX binding pocket mutant D794E (protein)
chain: B2 chain with A577Y, D813E
B5: F561A: RcSxph STX binding pocket mutant F561A (protein)
chain: B2 chain with A577Y, F580A
B6: Y558I: RcSxph STX binding pocket mutant Y558I (protein)
chain: B2 chain with A577I
B7: D785N: RcSxph STX binding pocket mutant D785N (protein)
chain: B2 chain with A577Y, D804N
B8: D794A: RcSxph STX binding pocket mutant D794A (protein)
chain: B2 chain with A577Y, D813A
B9: OsSxph: Oophaga sylvatica (Little devil poison frog) saxiphilin, SEQ ID NO: 5 (protein, listed as Oophaga sylvatica)
chain: MRMTLQVLLCLCLLVLSSAAPNSRNVRWCVTSDTEEQKCNDLVTSCHVDEILLICVKKSSKEDCVRAISNGEADAISLDSKDVYKASLDPFNLKPIMTEAYSESEQTPCMRHRQSVLGGKKMIIGAFVPKCDEKGNYVPKQCHDSTGFCWCLNENGEEIEGTRTPPGNSGLTCENKANKPPCLKERQKLLSAKPSPAVFVPECDEKGNYRPEQSHVYSWCVDEYGEEVLGSRTFPGKPPKPCEASGETPCIKERNKVLSAAEPLPGAFVPDCDEKGYFSPLQFHGSTGHSWCVTKNGEEIKGTRTRPGQTPPTCDVPAPATLHYAVAVVKKSSSFQLDQLKGKRSCHSAVGEAAGWVAPLNVLLKKKFLLWEEPEQKSTEKVASEIFSASCAAGAQEANLCEQCAGQEDKCTRGPGEPYYGDEGAIRCLRDDKGDVAFVEDTALTGQYSDNFELLCPDNTRRPLSQYKICNFGSVPRHAVVTRSTGDKMKEITEYLLQAQKKECKLFSSTHGKDLLFEDTTSALIALPSGMDTFLFLGPDLFNGMKTLNGAHPPRVKQKIRWCPQNKNEKKKCDDWSSVSGGSIKCTEPSSALECIKMILKDEADAVNLDAEHAYTALKCGLLPSLEEYRNKDDLIVCQIPGAEYSEFGSYRIVALVKKTDKDITWNNLQGKKSCHTHVGDMIGWNIPVYLISKKTKNCDLGSYFSQSCAPGSPIDSNLCKLCIGDPQNTEANTKCSLSDKEAYYGNEGAVRCLVETGDVAFVPHTAVFENTDGKNPALWAKDLKSTDFELLCPDGSRAPVSDYKKCKLSGIANHVTVTRPESVKDVVRITQNQESLYGRTGSQKDIFQMFSSSYGQNLLFNDRTQCLFEFDRMLDRDIMDDYLGKPFHKHLMSDNDCLPKSALATACSFHH

Target: not given
Experiment: not given
Type: binding
Settings: ITC, STX, 25° C.
Method: . […] In almost all mutants, binding affinity loss correlated with a reduction in enthalpy, consistent with a loss of interactions (Table S2). […]. […] Together, these three assays (FIGS. 1E and G) provide a robust and versatile suite of options for characterizing STX:Sxph interactions.
ITC measurements were performed at 25° C. using a MicroCal PEAQ-ITC calorimeter (Malvern Panalytical). […]. This STX stock was diluted with the SEC buffer to prepare 100 μM or 300 μM STX solutions having a final buffer composition of 135 mM NaCl, 9 mM HEPES, pH 7.4. […]. The calorimetric experiment settings were: reference power, 5 μcal/s; spacing between injections, 150 s; stir speed 750 rpm; and feedback mode, high. Data were analyzed using MicroCal PEAQ-ITC Analysis Software (Malvern Panalytical) using a single binding site model. The heat of dilution from titrations of 100 μM STX in 135 mM NaCl, 9 mM HEPES, pH 7.4 into 135 mM NaCl, 9 mM HEPES, pH 7.4 was subtracted from each experiment to correct the baseline.

First: B1
Second: B2
The Kd of the first is 2.1-fold higher: 2.5 ± 0.1 nM for the first, 1.2 ± 0.4 nM for the second.

Going from B3 to B4, the Kd rises from 68.9 ± 10.7 nM to 312.5 ± 2.9 nM (4.5-fold).

First: B5
Second: B6
The Kd of the first is 12-fold higher: 13.4 ± 1.4 nM for the first, 1.1 ± 0.5 nM for the second. The second binds more tightly here.

Compared with B1, B2 is lower in “ΔG” value: -11.8 ± 0.1 kcal/mol for the first, -12.2 ± 0.2 kcal/mol for the second.

Going from B3 to B4, the “ΔG” value rises from -9.8 ± 0.1 kcal/mol to -8.9 ± 0.1 kcal/mol.

Compared with B5, B6 is lower in “ΔG” value: -10.8 ± 0.1 kcal/mol for the first, -12.2 ± 0.3 kcal/mol for the second.

Compared with B1, B2 is higher in “ΔH” value: -18.7 ± 0.2 kcal/mol for the first, -15.3 ± 0.0 kcal/mol for the second.

Compared with B3, B4 is higher in “ΔH” value: -16.3 ± 1.7 kcal/mol for the first, -11.8 ± 0.0 kcal/mol for the second.

Going from B5 to B6, the “ΔH” value falls from -12.7 ± 0.2 kcal/mol to -15.5 ± 0.3 kcal/mol.

Going from B1 to B2, the “ΔS (cal mol^−1 K^−1)” value rises from −23.2 ± 0.8 cal mol^−1 K^−1 to −11.1 ± 1.1 cal mol^−1 K^−1.

Compared with B3, B4 is higher in “ΔS (cal mol^−1 K^−1)” value: −21.9 ± 5.7 cal mol^−1 K^−1 for the first, −8.9 ± 0.1 cal mol^−1 K^−1 for the second.

Compared with B5, B6 is lower in “ΔS (cal mol^−1 K^−1)” value: −6.6 ± 0.9 cal mol^−1 K^−1 for the first, −10.5 ± 0.6 cal mol^−1 K^−1 for the second.

Same assay, conditions: ITC, STX, 25° C.; listed as NpSxph WT

With B1 the “ΔH” value was -18.7 ± 0.2 kcal/mol.

Test system: not given
Experiment: not given
Type: binding
Settings: FP

With B1 the “STX/F-STX affinity compared with RcSxph” value was “enhanced affinity”.

Same assay, conditions: FP, 1 nM F-STX, 25° C.; errors S.D.

Going from B1 to B7, the Kd rises from 0.5 ± 0.3 nM to 4.4 ± 0.6 nM (8.8-fold).

First: B2
Second: B3
The Kd of the first is 71-fold lower: 1.4 ± 0.3 nM for the first, 99.9 ± 25.1 nM for the second.

First: B8
Second: B4
The Kd of the first is 12-fold higher: 13200 ± 6870 nM for the first, 1070 ± 69.3 nM for the second.

Compared with B5, B6 is 14-fold lower in Kd: 16.8 ± 6 nM for the first, 1.2 ± 0.2 nM for the second.

With B9 the Kd was 0.8 ± 0.5 nM.

Same assay, conditions: ΔΔG = RT ln(Kd mutant or XSxph/Kd RcSxph); T = 298K; FP with F-STX

Compared with B1, B7 is higher in “ΔΔG” value: -1.60 kcal/mol for the first, -0.30 kcal/mol for the second.

First: B2
Second: B3
The “ΔΔG” value of the first is lower: -1.00 kcal/mol for the first, 1.54 kcal/mol for the second.

First: B8
Second: B4
The “ΔΔG” value of the first is higher: 4.43 kcal/mol for the first, 2.94 kcal/mol for the second.

First: B5
Second: B6
The “ΔΔG” value of the first is higher: 0.48 kcal/mol for the first, -1.07 kcal/mol for the second.

For B9, the “ΔΔG” value was -1.32 kcal/mol.

Test system: Phyllobates terribilis NaV1.4 (PtNaV1.4)
Experiment: Two-electrode voltage clamp: Sxph rescue of PtNaV1.4 from STX block in Xenopus oocytes
Type: cell-based
Settings: [Sxph]:[STX] ratio, 100 nM STX, PtNaV1.4 in Xenopus oocytes

With B6 the “Effective Rescue Ratio50 (ERR50)” value was 0.81±0.01.

Test system: not listed separately
Experiment: Thermofluor (TF) assay of STX binding
Settings: 1.1 μM Sxph, 0-20 μM STX; ΔTm at 20 μM toxin

In the case of B1, the “ΔTm (STX-induced change of melting temperature)” value is reported as 3.6 °C.

With B7 the “ΔTm (STX-induced change of melting temperature)” value was “DTm increases relative to wild-type”.
In the case of B8, the “ΔTm (STX-induced change of melting temperature)” value is reported as “complete loss of the thermal shift”.

From US20260034194A1, “PHARMACEUTICAL COMPOSITIONS AND METHODS OF TREATING PSP” (priority 2022, published 2026)
